For experiment [1], the target named is CD4-Ig. As to the kind of experiment: pull-down.
For experiment [2], the target named is HIV-1YU2 gp41 transmembrane envelope glycoprotein (HIV-1 YU2) (UniProt P35961). As to the kind of experiment: gp120-gp41 association index.
For experiment [3], the target named is soluble CD4 (UniProt P01730). As to the kind of experiment: SPR. (In SPR one partner is held on a chip, and binding of the other changes the refractive index at the surface.)
In experiment [4] the target is CCR5 (UniProt P51681). As to the kind of experiment: radioligand binding.

Consider HIV-1YU2 gp120 A60G (natural protein), for which the CD4-Ig binding (relative to wild type) in experiment [1] came out at 1.46. Turning to HIV-1YU2 gp120 A73S (natural protein), the CD4-Ig binding (relative to wild type) in experiment [1] was 1.19. Substance HIV-1YU2 gp120 A221G (natural protein) registered a CD4-Ig binding (relative to wild type) in experiment [1] of 0.76. HIV-1YU2 gp120 D57A (natural protein) displayed an association index (relative to wild type) in experiment [2] of 0.62. In experiment [1], this substance gave a CD4-Ig binding (relative to wild type) of 0.91.

For HIV-1YU2 gp120 D78A (natural protein), the CD4-Ig binding (relative to wild type) in experiment [1] was 1.13. By Kd is commonly meant a measure of binding affinity in units of concentration. Low values mean tighter binding, high ones weaker binding. The term koff denotes the rate constant with which the complex falls apart. A high value points to a short-lived complex. One may read the kon as the second-order rate constant of association. Low readings indicate slower complex formation, high ones faster complex formation. HIV-1YU2 gp120 D107A (natural protein): in experiment [3], the Kd was found to be 74.3 nM, the koff came to 0.00142 s⁻¹ and the kon was 19100 M⁻¹ s⁻¹. In experiment [4], the fold reduction of CCR5 binding against wt gp120 was found to be 2 fold. In experiment [1], this substance returned a CD4-Ig binding (relative to wild type) of 0.66. “HIV-1YU2 gp120 D107A/S375W (natural protein)”: the association index (relative to wild type) in experiment [2] came out at 0.61. In experiment [1], this substance registered a CD4-Ig binding (relative to wild type) of 0.76.

Turning to HIV-1YU2 gp120 D107Q (natural protein), the CD4-Ig binding (relative to wild type) in experiment [1] is 0.69. With HIV-1YU2 gp120 D113A (natural protein), the CD4-Ig binding (relative to wild type) in experiment [1] stood at 1.79. Regarding HIV-1YU2 gp120 E47A (natural protein), the association index (relative to wild type) in experiment [2] was determined as 0.64. As for HIV-1YU2 gp120 E91A (natural protein), in experiment [1], the CD4-Ig binding (relative to wild type) came to 1.45. Substance HIV-1YU2 gp120 F53A (natural protein) came in with an association index (relative to wild type) in experiment [2] of 0.25. In experiment [1], the CD4-Ig binding (relative to wild type) came to 0.29.

HIV-1YU2 gp120 F210A (natural protein) displayed an association index (relative to wild type) in experiment [2] of 1.33. In the case of HIV-1YU2 gp120 F223A (natural protein), in experiment [1], the CD4-Ig binding (relative to wild type) stood at 0.85.

Turning to HIV-1YU2 gp120 H66A (natural protein), in experiment [3], the Kd worked out at 172 nM, the koff came out at 0.000569 s⁻¹ and the kon is 3320 M⁻¹ s⁻¹. The like results for “HIV-1YU2 gp120 H66A/S375W (natural protein)” were, in that order, 7.67 nM, 5.02e-06 s⁻¹ and 655 M⁻¹ s⁻¹.

HIV-1YU2 gp120 H72A (natural protein) had a CD4-Ig binding (relative to wild type) in experiment [1] of 1.11. Same read-out and setting: with HIV-1YU2 gp120 I108A (natural protein) the figure was 1.48; with HIV-1YU2 gp120 I109A (natural protein), 0.49. Substance HIV-1YU2 gp120 L52A (natural protein) registered an association index (relative to wild type) in experiment [2] of 0.25. The substance also came in with a CD4-Ig binding (relative to wild type) in experiment [1] of 0.23. In the case of HIV-1YU2 gp120 L111A (natural protein), in experiment [3], the Kd was 32.3 nM, the koff was 0.000426 s⁻¹ and the kon came out at 13200 M⁻¹ s⁻¹. Also, in experiment [4], the fold reduction of CCR5 binding against wt gp120 stood at 2 fold. In addition, in experiment [2], the association index (relative to wild type) was 0.28. As for “HIV-1YU2 gp120 L111A/S375W (natural protein)”, in experiment [3], the Kd stood at 1.12 nM, the koff is 1.92e-05 s⁻¹ and the on-rate constant (kon) was 17100 M⁻¹ s⁻¹. In experiment [1], the CD4-Ig binding (relative to wild type) is 1.32. On to HIV-1YU2 gp120 L111F (natural protein), for which, in experiment [3], the Kd amounted to 13.3 nM, the koff worked out at 0.000204 s⁻¹ and the kon came out at 15300 M⁻¹ s⁻¹. Turning to HIV-1YU2 gp120 L111W (natural protein), in experiment [3], the Kd worked out at 621 nM and the kon was 2090 M⁻¹ s⁻¹. With HIV-1YU2 gp120 L116A (natural protein), the CD4-Ig binding (relative to wild type) in experiment [1] came out at 0.67. In turn, HIV-1YU2 gp120 M104A (natural protein) showed a CD4-Ig binding (relative to wild type) in experiment [1] of 1.25. HIV-1YU2 gp120 N80A (natural protein): the association index (relative to wild type) in experiment [2] is 0.65. Moreover, the CD4-Ig binding (relative to wild type) in experiment [1] was found to be 1.24.

HIV-1YU2 gp120 N99A (natural protein): the association index (relative to wild type) in experiment [2] was 0.7. The substance further registered a CD4-Ig binding (relative to wild type) in experiment [1] of 0.97.

Turning to HIV-1YU2 gp120 P76A (natural protein), the association index (relative to wild type) in experiment [2] is 0.64. Moreover, in experiment [1], the CD4-Ig binding (relative to wild type) came out at 1.02.

For HIV-1YU2 gp120 P79A (natural protein), the association index (relative to wild type) in experiment [2] came out at 0.64. For the same substance, the CD4-Ig binding (relative to wild type) in experiment [1] is 1.29. Turning to HIV-1YU2 gp120 P212A (natural protein), the CD4-Ig binding (relative to wild type) in experiment [1] was found to be 0.65. For the substance HIV-1YU2 gp120 Q82A (natural protein), the association index (relative to wild type) in experiment [2] amounted to 1.03. In experiment [1], this substance gave a CD4-Ig binding (relative to wild type) of 1.12. The like results for HIV-1YU2 gp120 Q103A (natural protein) were, in that order, 1.07 and 1.15.

On to HIV-1YU2 gp120 Q103R (natural protein), for which, in experiment [1], the CD4-Ig binding (relative to wild type) was determined as 0.74. In turn, HIV-1YU2 gp120 Q114N (natural protein) came in with an association index (relative to wild type) in experiment [2] of 0.74. Besides, the CD4-Ig binding (relative to wild type) in experiment [1] amounted to 1.09.

In the case of HIV-1YU2 gp120 S110N (natural protein), the association index (relative to wild type) in experiment [2] came out at 0.66. On to HIV-1YU2 gp120 S110W (natural protein), for which the association index (relative to wild type) in experiment [2] stood at 0.49. The substance HIV-1YU2 gp120 S115A (natural protein) had an association index (relative to wild type) in experiment [2] of 1.12. Also, the CD4-Ig binding (relative to wild type) in experiment [1] was found to be 1.36. In experiment [3], HIV-1YU2 gp120 S375W (natural protein) returned a Kd of 0.0469 nM, a koff of 6.49e-07 s⁻¹ and a kon of 13800 M⁻¹ s⁻¹. Further, the CD4-Ig binding (relative to wild type) in experiment [1] came to 1.12. In turn, HIV-1YU2 gp120 T49A (natural protein) yielded an association index (relative to wild type) in experiment [2] of 1.07. The same substance came in with a CD4-Ig binding (relative to wild type) in experiment [1] of 1.14. Turning to HIV-1YU2 gp120 T51A (natural protein), in experiment [2], the association index (relative to wild type) is 1.06. Besides, in experiment [1], the CD4-Ig binding (relative to wild type) stood at 1.02. HIV-1YU2 gp120 T63A (natural protein) registered a CD4-Ig binding (relative to wild type) in experiment [1] of 1.79. Same read-out and setting: the figure for HIV-1YU2 gp120 T71A (natural protein) is 0.85; for HIV-1YU2 gp120 T77A (natural protein) it is 1.52; for HIV-1YU2 gp120 V68A (natural protein) it is 1.12. Regarding HIV-1YU2 gp120 V89A (natural protein), in experiment [1], the CD4-Ig binding (relative to wild type) stood at 0.97.

For the substance HIV-1YU2 gp120 W69L (natural protein), in experiment [3], the Kd is 54.2 nM, the koff came out at 0.000526 s⁻¹ and the kon came out at 9690 M⁻¹ s⁻¹. The fold reduction of CCR5 binding against wt gp120 in experiment [4] is 2 fold. For the same substance, the association index (relative to wild type) in experiment [2] came to 0.89. This substance also returned a CD4-Ig binding (relative to wild type) in experiment [1] of 0.64. Regarding “HIV-1YU2 gp120 W69L/L111W (natural protein)”, in experiment [3], the Kd turned out to be 871 nM, the koff is 0.000483 s⁻¹ and the kon stood at 554 M⁻¹ s⁻¹. Moreover, the association index (relative to wild type) in experiment [2] amounted to 0.28. Take “HIV-1YU2 gp120 W69L/S375W (natural protein)”: in experiment [3], the Kd worked out at 0.846 nM, the koff came out at 9.98e-06 s⁻¹ and the kon was 11800 M⁻¹ s⁻¹. Moreover, the association index (relative to wild type) in experiment [2] amounted to 0.81. This substance registered a CD4-Ig binding (relative to wild type) in experiment [1] of 1.11.

In turn, HIV-1YU2 gp120 W96A (natural protein) registered an association index (relative to wild type) in experiment [2] of 0.65. Also, the CD4-Ig binding (relative to wild type) in experiment [1] was 0.66. Consider HIV-1YU2 gp120 W112A (natural protein), for which the CD4-Ig binding (relative to wild type) in experiment [1] came to 0.25.

HIV-1YU2 gp120 W437R (natural protein) gave an association index (relative to wild type) in experiment [2] of 0.64. HIV-1YU2 gp120 Y61A (natural protein) yielded an association index (relative to wild type) in experiment [2] of 0.89. The CD4-Ig binding (relative to wild type) in experiment [1] came to 1.33. Turning to “HIV-1YU2 gp120 exterior envelope glycoprotein, wild-type (from UniProt P35961 32-498) (natural protein)”, the CD4-Ig binding (relative to wild type) in experiment [1] stood at 1.

The values are drawn from article PMC2854584.
